Results taken from patent US20240124528A1 (ACADEMIA SINICA, published 2024).
Positions count from the first letter of the chain named. Names may count otherwise.

T1: TRAF6, endogenous (human, UniProt Q9Y4K3 1-522)
T1 sequence (looked up): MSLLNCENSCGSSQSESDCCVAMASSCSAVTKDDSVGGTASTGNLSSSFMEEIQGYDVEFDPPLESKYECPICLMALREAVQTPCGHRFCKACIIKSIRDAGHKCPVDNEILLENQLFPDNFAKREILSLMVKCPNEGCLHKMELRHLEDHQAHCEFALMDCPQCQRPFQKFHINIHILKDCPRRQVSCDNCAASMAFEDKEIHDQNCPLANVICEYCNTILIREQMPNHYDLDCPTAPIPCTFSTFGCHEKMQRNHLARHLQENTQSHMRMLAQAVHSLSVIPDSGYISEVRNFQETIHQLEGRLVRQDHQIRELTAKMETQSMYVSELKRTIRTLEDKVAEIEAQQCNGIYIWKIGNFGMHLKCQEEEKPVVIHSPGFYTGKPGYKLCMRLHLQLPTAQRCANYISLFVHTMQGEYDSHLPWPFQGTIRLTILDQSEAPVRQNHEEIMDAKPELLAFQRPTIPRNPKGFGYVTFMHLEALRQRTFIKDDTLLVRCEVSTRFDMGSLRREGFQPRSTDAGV

T2: ACT1, endogenous (human, UniProt O43734 1-574, limits assumed)
T2 sequence (looked up): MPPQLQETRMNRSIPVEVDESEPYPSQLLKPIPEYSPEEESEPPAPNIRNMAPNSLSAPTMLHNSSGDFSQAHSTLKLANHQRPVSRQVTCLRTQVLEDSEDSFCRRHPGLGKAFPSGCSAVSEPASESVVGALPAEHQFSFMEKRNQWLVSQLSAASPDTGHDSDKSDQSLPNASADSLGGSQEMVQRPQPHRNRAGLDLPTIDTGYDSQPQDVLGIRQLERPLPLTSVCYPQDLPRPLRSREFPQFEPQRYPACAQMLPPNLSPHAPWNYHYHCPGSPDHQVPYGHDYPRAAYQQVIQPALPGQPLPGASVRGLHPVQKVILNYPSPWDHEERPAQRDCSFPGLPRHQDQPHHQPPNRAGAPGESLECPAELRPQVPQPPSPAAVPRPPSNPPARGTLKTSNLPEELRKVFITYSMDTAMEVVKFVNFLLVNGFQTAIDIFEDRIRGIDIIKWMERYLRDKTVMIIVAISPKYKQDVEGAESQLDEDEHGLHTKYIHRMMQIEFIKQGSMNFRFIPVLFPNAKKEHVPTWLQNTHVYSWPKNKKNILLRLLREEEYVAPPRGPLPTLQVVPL

T3: TAK1, endogenous (human, UniProt O43318 1-606, limits assumed)
T3 sequence (looked up): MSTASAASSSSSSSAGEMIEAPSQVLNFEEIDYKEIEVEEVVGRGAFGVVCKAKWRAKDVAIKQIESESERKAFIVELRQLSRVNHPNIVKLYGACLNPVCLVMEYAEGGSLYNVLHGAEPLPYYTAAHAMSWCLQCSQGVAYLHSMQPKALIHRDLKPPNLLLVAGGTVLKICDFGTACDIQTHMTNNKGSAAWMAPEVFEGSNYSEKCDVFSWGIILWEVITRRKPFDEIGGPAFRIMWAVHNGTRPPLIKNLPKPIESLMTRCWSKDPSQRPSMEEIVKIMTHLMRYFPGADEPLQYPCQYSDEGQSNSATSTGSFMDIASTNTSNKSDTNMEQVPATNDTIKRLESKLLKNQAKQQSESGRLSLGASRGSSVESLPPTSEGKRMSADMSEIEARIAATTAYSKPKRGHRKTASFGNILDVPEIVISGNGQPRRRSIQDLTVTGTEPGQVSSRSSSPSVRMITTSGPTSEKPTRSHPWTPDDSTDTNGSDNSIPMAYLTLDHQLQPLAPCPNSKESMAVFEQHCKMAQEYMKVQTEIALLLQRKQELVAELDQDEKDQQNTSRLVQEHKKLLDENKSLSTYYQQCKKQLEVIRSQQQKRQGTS

T4: IL-17RB-HA (C-terminally HA-tagged full-length IL-17RB, wild type) (human, UniProt Q9NRM6 18-502)
T4 construct: Full-length IL-17RB subcloned into pcDNA3.1, expressed in 293T, IL-17RB-KO BxPC3 or SU.86.86 cells; also called HA-IL-17RB; HA-tagged WT IL-17RB; not shown: HA tag, C-terminal
T4 sequence: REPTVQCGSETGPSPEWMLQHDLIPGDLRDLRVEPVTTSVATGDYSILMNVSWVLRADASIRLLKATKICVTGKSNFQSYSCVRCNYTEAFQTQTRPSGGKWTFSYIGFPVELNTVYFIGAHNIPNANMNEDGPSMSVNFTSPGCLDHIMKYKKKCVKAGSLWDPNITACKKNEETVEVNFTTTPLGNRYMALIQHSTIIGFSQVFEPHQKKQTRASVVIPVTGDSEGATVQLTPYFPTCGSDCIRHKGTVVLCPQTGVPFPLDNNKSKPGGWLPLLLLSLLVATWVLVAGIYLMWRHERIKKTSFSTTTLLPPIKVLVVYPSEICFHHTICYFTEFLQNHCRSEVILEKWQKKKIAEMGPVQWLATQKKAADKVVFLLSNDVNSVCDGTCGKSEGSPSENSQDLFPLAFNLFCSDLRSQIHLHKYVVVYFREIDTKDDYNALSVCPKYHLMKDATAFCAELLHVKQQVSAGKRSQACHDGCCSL

B1: IL-17RB K470R, Flag-tagged (receptor)
chain: T4 sequence with K453R
notes: also called K470R-mutant IL-17RB; not shown: Flag tag
B2: IL-17RB ΔV403˜S416 (Del-3), HA-tagged (receptor)
chain: REPTVQCGSETGPSPEWMLQHDLIPGDLRDLRVEPVTTSVATGDYSILMNVSWVLRADASIRLLKATKICVTGKSNFQSYSCVRCNYTEAFQTQTRPSGGKWTFSYIGFPVELNTVYFIGAHNIPNANMNEDGPSMSVNFTSPGCLDHIMKYKKKCVKAGSLWDPNITACKKNEETVEVNFTTTPLGNRYMALIQHSTIIGFSQVFEPHQKKQTRASVVIPVTGDSEGATVQLTPYFPTCGSDCIRHKGTVVLCPQTGVPFPLDNNKSKPGGWLPLLLLSLLVATWVLVAGIYLMWRHERIKKTSFSTTTLLPPIKVLVVYPSEICFHHTICYFTEFLQNHCRSEVILEKWQKKKIAEMGPVQWLATQKKAADKVVFLLSNDVNSENSQDLFPLAFNLFCSDLRSQIHLHKYVVVYFREIDTKDDYNALSVCPKYHLMKDATAFCAELLHVKQQVSAGKRSQACHDGCCSL
notes: Deletion of the flexible loop; also called Del-3 mutant; not shown: HA tag

Tests used:
[1] = molecular target: T1, TRAF6, endogenous; assay: co-IP with anti-Flag agarose, IL-17RB-KO BxPC3 cells, rIL-17B (FIG. 6G)
[2] = molecular target: T2, ACT1, endogenous; assay: as above
[3] = molecular target: T3, TAK1, endogenous; assay: as above
[4] = molecular target: T4, IL-17RB-HA (C-terminally HA-tagged …); assay: co-IP with anti-HA beads, IL-17RB-KO BxPC3 cells, 50 ng/ml rIL-17B (FIG. 14B)
Description: For reciprocal co-IP, the whole-cell extract was incubated with anti-Flag M2 agarose (A2220, Sigma-Aldrich) or anti-HA (HA-7) agarose (A2095, Sigma-Aldrich) at 4° C. for 2 hrs with gentle agitation. […] Bradford assay (Bio-Rad) was used for determining protein concentration.

[5] = molecular target: T5, Flag-MLK4 (human, UniProt Q5TCX8 1-1036, limits assumed); assay: reciprocal co-IP, 293T cells, rIL-17B (FIG. 5C)
T5 construct: also called Flag-tagged WT MLK4; not shown: Flag tag
T5 sequence (Q5TCX8 whole entry): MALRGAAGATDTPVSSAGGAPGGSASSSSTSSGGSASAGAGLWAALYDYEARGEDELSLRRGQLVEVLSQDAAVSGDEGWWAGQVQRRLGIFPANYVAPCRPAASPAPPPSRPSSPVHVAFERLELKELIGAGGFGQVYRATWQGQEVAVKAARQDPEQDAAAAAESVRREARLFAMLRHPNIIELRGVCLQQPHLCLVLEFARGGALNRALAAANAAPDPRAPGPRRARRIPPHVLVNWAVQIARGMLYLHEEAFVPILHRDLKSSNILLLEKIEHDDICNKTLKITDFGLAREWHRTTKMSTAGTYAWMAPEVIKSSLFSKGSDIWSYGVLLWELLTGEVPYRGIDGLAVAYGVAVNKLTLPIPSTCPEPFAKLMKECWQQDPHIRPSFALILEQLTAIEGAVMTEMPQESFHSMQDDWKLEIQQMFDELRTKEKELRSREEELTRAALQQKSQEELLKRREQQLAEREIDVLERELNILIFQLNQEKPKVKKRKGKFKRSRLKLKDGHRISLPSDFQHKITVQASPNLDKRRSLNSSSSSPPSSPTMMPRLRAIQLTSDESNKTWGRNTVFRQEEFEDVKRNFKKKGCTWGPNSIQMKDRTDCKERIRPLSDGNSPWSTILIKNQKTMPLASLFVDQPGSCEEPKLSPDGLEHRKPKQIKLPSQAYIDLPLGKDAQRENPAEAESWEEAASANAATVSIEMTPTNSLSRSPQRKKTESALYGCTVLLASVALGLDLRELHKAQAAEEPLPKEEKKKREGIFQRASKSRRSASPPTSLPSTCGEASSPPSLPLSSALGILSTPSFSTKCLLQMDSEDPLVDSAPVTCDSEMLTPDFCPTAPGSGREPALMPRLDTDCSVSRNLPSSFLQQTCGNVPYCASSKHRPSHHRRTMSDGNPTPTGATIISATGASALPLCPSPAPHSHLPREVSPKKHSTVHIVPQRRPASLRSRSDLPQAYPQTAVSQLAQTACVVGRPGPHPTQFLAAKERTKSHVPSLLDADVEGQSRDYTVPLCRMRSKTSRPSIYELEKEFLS

[6] = molecular target: T6, mixed-lineage kinase 4 (MLK4), endogenous (human, UniProt Q5TCX8 1-1036, limits assumed); assay: co-IP with anti-HA beads, blot with anti-MLK4, rIL-17B (FIG. 5D)
T6 construct: also called KIAA1804; MAP3K21
T6 sequence (Q5TCX8 whole entry): as above

Row | Binder | binding result [1] | binding result [2] | binding result [3] | binding result [4] | binding result [5] | binding result [6]
1 | B1 | no binding | no binding | no binding | binds | – | –
2 | B2 | – | – | – | – | no binding | no binding
